Here are results for two substances from publication PMC13123425.

This assay has as its target human VWF-A2 fragment (human).

Sequence of human recombinant wild-type complement factor H (P08603 19-1231): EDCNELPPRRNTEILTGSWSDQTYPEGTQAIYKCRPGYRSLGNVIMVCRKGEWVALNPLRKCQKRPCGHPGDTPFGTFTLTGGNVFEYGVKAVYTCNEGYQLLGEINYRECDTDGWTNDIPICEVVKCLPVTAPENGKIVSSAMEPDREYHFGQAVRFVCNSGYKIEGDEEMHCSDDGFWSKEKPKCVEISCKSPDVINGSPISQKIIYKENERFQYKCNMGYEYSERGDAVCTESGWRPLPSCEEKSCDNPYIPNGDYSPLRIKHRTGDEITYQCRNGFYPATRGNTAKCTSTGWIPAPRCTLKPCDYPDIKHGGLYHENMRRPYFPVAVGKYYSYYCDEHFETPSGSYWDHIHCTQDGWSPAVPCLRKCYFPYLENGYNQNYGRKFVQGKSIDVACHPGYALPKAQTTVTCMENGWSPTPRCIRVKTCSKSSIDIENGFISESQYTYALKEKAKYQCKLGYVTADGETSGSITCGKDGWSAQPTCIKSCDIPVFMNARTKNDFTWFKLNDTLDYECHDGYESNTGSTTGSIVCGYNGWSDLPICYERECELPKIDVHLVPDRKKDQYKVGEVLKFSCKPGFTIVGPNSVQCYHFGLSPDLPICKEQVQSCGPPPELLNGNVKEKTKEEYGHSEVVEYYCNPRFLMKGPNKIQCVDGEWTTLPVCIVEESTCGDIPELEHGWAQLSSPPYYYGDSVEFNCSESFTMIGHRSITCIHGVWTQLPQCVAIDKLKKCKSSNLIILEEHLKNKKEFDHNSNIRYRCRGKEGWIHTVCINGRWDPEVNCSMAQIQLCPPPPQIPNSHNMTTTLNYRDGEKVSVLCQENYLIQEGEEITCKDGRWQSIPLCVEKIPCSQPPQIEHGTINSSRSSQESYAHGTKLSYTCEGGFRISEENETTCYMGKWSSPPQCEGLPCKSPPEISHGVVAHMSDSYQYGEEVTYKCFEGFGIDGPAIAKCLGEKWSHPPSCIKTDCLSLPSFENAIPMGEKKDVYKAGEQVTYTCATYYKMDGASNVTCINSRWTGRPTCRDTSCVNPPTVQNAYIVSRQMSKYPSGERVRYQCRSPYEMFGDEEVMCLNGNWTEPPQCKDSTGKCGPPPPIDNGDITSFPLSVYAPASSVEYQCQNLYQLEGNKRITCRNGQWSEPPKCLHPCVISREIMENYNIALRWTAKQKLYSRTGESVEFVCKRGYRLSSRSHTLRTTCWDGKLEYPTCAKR

With “human recombinant W1183R complement factor H (from UniProt P08603 19-1231) (natural protein)”, the optical tweezer pulling of VWF-A2 (Avi-His/SpyTag, biotinylated construct) with 1.0 μM W1183R-CFH: contour length Lc (no CFH: 55,3 nm) is 31.8 nm; the optical tweezer pulling of VWF-A2 with 1.0 μM W1183R-CFH: energy barrier position γ, Bell-Evans fit (no CFH: 0.71 nm) turned out to be 1.38 nm; the optical tweezer pulling of VWF-A2 with 1.0 μM W1183R-CFH: persistent length Lp (no CFH: 0.28 nm) was determined as 0.38 nm; the optical tweezer pulling of VWF-A2 with 1.0 μM W1183R-CFH: unstressed unfolding rate ku0, Bell-Evans fit (no CFH: 0.15 s^-1) is 0.034 s⁻¹.
Consider “human recombinant wild-type complement factor H (from UniProt P08603 19-1231) (natural protein)”, for which the optical tweezer pulling of VWF-A2 (Avi-His/SpyTag, biotinylated construct) with 1.0 μM WT-CFH: contour length Lc (no CFH: 55,3 nm) was 40 nm; the optical tweezer pulling of VWF-A2 with 1.0 μM WT-CFH: energy barrier position γ, Bell-Evans fit (no CFH: 0.71 nm) was 1.88 nm; the optical tweezer pulling of VWF-A2 with 1.0 μM WT-CFH: persistent length Lp (no CFH: 0.28 nm) came to 0.38 nm; the optical tweezer pulling of VWF-A2 with 1.0 μM WT-CFH: unstressed unfolding rate ku0, Bell-Evans fit (no CFH: 0.15 s^-1) worked out at 0.017 s⁻¹.
